In assay [1] the target is T1, human CD70, recombinant, N-terminally biotinylated (residues 39-193) (human, UniProt P32970 39-193, N-terminal biotin).
T1 construct: range 39-193; the same entry is used there; also called biotinylated human CD70; CD70 biotin
T1 sequence (looked up): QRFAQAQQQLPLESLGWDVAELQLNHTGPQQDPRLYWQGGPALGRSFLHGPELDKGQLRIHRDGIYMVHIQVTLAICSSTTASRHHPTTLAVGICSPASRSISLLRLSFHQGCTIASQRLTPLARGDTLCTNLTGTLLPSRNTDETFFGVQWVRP
The assay can be described thus: SPR. The gist of the method:
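Human scFv antibodies came from panning a naïve human library against the CD70 extracellular domain (aa39-193). Their affinity (Kd) for recombinant, N-terminally biotinylated human CD70 was measured by surface plasmon resonance (SPR) analysis.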
A general note: In SPR one partner is held on a chip, and binding of the other changes the refractive index at the surface.

The target in assay [2] is T2, CD70 on cells (CHO-CD70, JVM-3, U266, Raji, THP-1, T cells) (human, UniProt P32970 1-193).
T2 construct: whole, on cells; also called cell-surface CD70
T2 sequence (looked up): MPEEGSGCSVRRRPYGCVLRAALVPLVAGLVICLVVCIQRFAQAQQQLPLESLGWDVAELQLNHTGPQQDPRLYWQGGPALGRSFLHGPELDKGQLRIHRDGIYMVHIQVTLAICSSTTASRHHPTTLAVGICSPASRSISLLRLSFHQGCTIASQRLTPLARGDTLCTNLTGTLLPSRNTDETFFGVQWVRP
The assay can be described thus: 1.25 µg/mL scFv on U266 cells. The method in brief: (§1)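 Tumour cell lines with high CD70 expression (CHO-CD70, JVM3, U266) or low CD70 expression (CHO WT, K562) were used to assess cell binding of human scFv antibodies, with results recorded per line. These antibodies had been selected by panning a naïve human library on the CD70 extracellular domain (aa39-193).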

Assay [3] concerns the target T2, CD70 on cells (CHO-CD70, JVM-3, U266, …). The assay can be described thus: 1.25 µg/mL scFv on JVM-3 cells. The gist of the method: as §1
The target is the same in assay [4]. The assay can be described thus: 1.25 µg/mL scFv on CHO-CD70 cells. The gist of the method:
as §1

Assay [5] addresses T1, human CD70, recombinant, N-terminally …. Put plainly: CD27 blocking ELISA, 3 µM scFv, strep/HRP. For orientation: An ELISA detects its analyte on a solid surface through an enzyme-linked reagent.
The target is the same in assay [6]. The assay can be described thus: CD27 blocking ELISA, 3 µM scFv, anti-His/HRP. The protocol: Human scFv antibodies binding CD70 were generated by panning a naïve human library with the extracellular domain (aa39-193) of CD70. 53 antibodies were identified. The ability of CD27 to block CD70 binding of the identified antibodies was measured by ELISA using two different assays. In the first assay, CD27 and his-tagged scFv anti-CD70 binders were simultaneously added to surface bound CD70, and the ability of the scFv binders to bind CD70 was detected with anti-His HRP. In the second assay, plate-bound CD70 was pre-incubated with CD27 for 30 minutes, and then additional CD27 and the his-tagged scFv anti-CD70 binder was added. The ability of the scFv binders to bind CD70 was detected with anti-His HRP. FIG. 34 is a schematic of the two different CD27 blocking assays. CD70 affinity was also measured by SPR analysis. scFv antibodies were also tested for their ability to bind tumor cell lines with high (CHO-CD70, JVM3, and U266) and low levels (CHO WT and K562 of CD70 expression. Results for 39 antibodies are shown in Table 1 below.

B1: 61-TC7-IV-H08 (scFv)
scFv: QMQLVQSGGGLVQPGRSLRLSCAASGFTFDDYAMHWVRQAPGKGLEWVAVISYDGSNKYYADSVKGRFTISRDNSKNTLYLQMNSLRAEDTAVYYCARSSYDFWSGYPKDMDVWGKGTTVTVSSGGSGGSGGSGGSSSELTQDPAVSVALGQTVRITCQGDSLRSYYASWYQQKPGQAPVLVIYGKNNRPSGIPDRFSGSSSGNTASLTITGAQAEDEADYYCNSRDSSGNHLVVFGGGTKLTVL
notes: His-tagged
A word on the Kd: it is the free concentration of one partner at which half of the binding sites on the other are occupied at equilibrium, for simple one-to-one binding. As for B1, in assay [1], the Kd is 332 nM. Moreover, the cell binding in assay [2] worked out at 947; in assay [3] it was 1070; in assay [4], 64900. The strep/HRP in assay [5] came out at 1.52. Besides, in assay [6], the “anti His/HRP” value amounted to 0.711.

B2: 57-TC7-VII-A03 (scFv)
scFv: QVQLQQSGPGLVKASETLSLTCAVSGHSISSSNYWGWIRQPPGKGLEWIGSIYHSGTTYYNPSLKSRVTMSVDTSKNQFSLKLSSVTAADTAVYYCARHGSGDLGYLEYWGQGTLVTVSSGGSGGSGGSGGSSYELTQSPSVSVAPGKTARITCGGNNIGSKSVHWYQQKPGQAPVLVIYYDSDRPSGIPERFSGSNSGNTATLTISRVEAGDEADYYCQVWDSSSDHPVFGGGTKVTVL
notes: His-tagged
B2: the Kd in assay [1] is 853 nM. Further, the results for the cell binding in assay [2], in assay [3] and in assay [4] were 3150, 1640 and 163000, respectively. Besides, the strep/HRP in assay [5] is 1.49. Further, the “anti His/HRP” value in assay [6] was found to be 1.89.

B3: 15-TC7-I-D07 (scFv)
scFv: QVQLQQWGAGLLKPSETLSLTCAVYGGSFSGYYWSWIRQPPGKGLEWIGEINHSGSTNYNPSLKSRVTISVDTSKNQFSLKLSSVTAADTAVYYCARVSRSRGAFDIWGQGTMVTVSSGGSGGSGGSGGSQSALTQPASVSGSPGQSITISCTGTNSDVGAYNYVSWYQQHPGKAPKLMIYEVTNRPSGVSNRFSGSKSGNTASLTISGLQAEDEADYYCSSYTSSGTWVFGGGTKLTVL
notes: His-tagged
Take B3: in assay [1], the Kd came out at 1750 nM. Besides, the figures for the cell binding in assay [2], in assay [3] and in assay [4] were 42900, 50900 and 271000, respectively. The strep/HRP in assay [5] was 1.45. For the same molecule, the “anti His/HRP” value in assay [6] came out at 2.5.

B4: 62-TC7-V-D08 (scFv)
scFv: QVQLQQWGAGLLKPSETLSLTCAVYGGSFSGYYWSWIRQPPGKGLEWIGEINHSGSTNYNPSLKSRVTISVDTSKNQFSLKLSSVTAADTAVYYCARVARGKGAFDIWGQGTMVTVSSGGSGGSGGSGGSQSALTQPASVSGSPGQSITISCTGTSSDVGGYNYVSWYQQHPGKAPKLLIYEVSSRPSGVSNRFSGSKSGNTASLTISGLQAEDEADYYCNSYTNSGSWVFGGGTKVTVL
notes: His-tagged
As for B4, in assay [1], the Kd turned out to be 194 nM. Further, the cell binding in assay [2] came out at 35300; in assay [3], 45200; in assay [4], 286000. For the same molecule, in assay [5], the strep/HRP came out at 1.54. For the same molecule, the “anti His/HRP” value in assay [6] is 2.

B5: 47-TC7-III-D10 (scFv)
scFv: QVQLVQSGAEVKKPGASVKVSCKASGYTFTSYGISWVRQAPGQGLEWMGWISAYNGNTNYAQKLQGRVTMTTDTSTSTAYMELRSLRSDDTAVYYCARDSSSWYYYYGMDVWGQGTTVTVSSGGSGGSGGSGGSSYELTQPPSVSVSPGQTARISCSGDALPNQYAYWYQQKPGQAPVLVIYQDSERPSGIPERFSGSSSGTTVTLTISGVQAEDEADYYCQSADTYGTSWVFGGGTKLTVL
notes: His-tagged
Consider B5, for which the Kd in assay [1] was found to be 18.6 nM. For the same molecule, the figures for the cell binding in assay [2], in assay [3] and in assay [4] were 19000, 34700 and 313000, respectively. In addition, in assay [5], the strep/HRP is 1.55. Also, the “anti His/HRP” value in assay [6] amounted to 1.5.
